In the series the test system is κ-casein (in skim milk).

Consider one substance from patent publication US20260152753.

Turning to “PEP4 aspartyl protease of the Pichia pastoris host cell”, the “SDS electrophoresis after 24 hours at 5 °C, 0.5% b-lactoglobulin from a pep4-containing host, heated and unheated” value is “the k-casein peak in both the heated and unheated samples had markedly reduced in size and a peak in the position expected for para-k-casein was present”; the “SDS-PAGE of heated skim milk with B-lac from a pep4-containing host: κ-casein band and para-κ-casein band” value was “the band intensity of the k-casein band decreased and a peptide band consistent with that of para-k-casein appeared”; the “SDS-PAGE of unheated skim milk with B-lac from a pep4-containing host: κ-casein band and para-κ-casein band” value is “the band intensity of the k-casein band decreased and a peptide band consistent with that of para-k-casein appeared”; the “lab-on-a-chip para-κ-casein peak area 24 h after 80 °C/30 min treatment, sample B-lac 1A (start: 0)” value was “After 24 hours, the peak area was 115.2 and 35.82 for κ-casein and para-κ-casein, respectively”. Besides, the “lab-on-a-chip para-κ-casein peak area 24 h after 120 °C/10 min treatment, sample B-lac 1A (start: 0)” value is “After 24 hours, the peak area was 179.4 and 16.12 for κ-casein and para-κ-casein, respectively”; the lab-on-a-chip peak area of para-κ-casein formed at 24 h at 5 °C, sample B-lac 1A (0 h: 0) came out at 147 peak area; the lab-on-a-chip peak area of para-κ-casein formed at 24 h at 5 °C, sample B-lac 1B (0 h: 0) came out at 56.1 peak area; the “lab-on-a-chip κ-casein peak area 24 h after 80 °C/30 min treatment, sample B-lac 1A (start: 249.48)” value was “After 24 hours, the peak area was 115.2 and 35.82 for κ-casein and para-κ-casein, respectively”. Further, the “lab-on-a-chip κ-casein peak area 24 h after 120 °C/10 min treatment, sample B-lac 1A (start: 249.6)” value was “After 24 hours, the peak area was 179.4 and 16.12 for κ-casein and para-κ-casein, respectively”; the “lab-on-a-chip κ-casein peak area at 24 h at 5 °C, sample B-lac 1A (0 h: 255)” value is given as 91.5 (64% degraded); the “lab-on-a-chip κ-casein peak area at 24 h at 5 °C, sample B-lac 1B (0 h: 253.98)” value is given as 138.72 (46% degraded); the “microfluidic chip SDS-PAGE of skim milk with about 1% B-Lac 1A held 0, 24 or 48 hours at room temperature” value is “showed evidence of proteolysis on storage with a decrease in the band associated with k-casein, and a new peptide peak appearing”. Besides, the “κ-casein degraded 24 h after 80 °C/30 min treatment, sample B-lac 1A” value is listed as “indicating that κ-casein had degraded by 54%”; the “κ-casein degraded 24 h after 120 °C/10 min treatment, sample B-lac 1A” value was “indicating that κ-casein had degraded by 72%”; the “κ-casein degraded after 24 h at 5 °C, sample B-lac 1A” value is 91.5 (64% degraded); the “κ-casein degraded after 24 h at 5 °C, sample B-lac 1B” value is on record as 138.72 (46% degraded).
